According to the RNAGym collection of RNA variant scans (doi:10.7554/elife.80360):

B1: CPEB3 Ribozyme (parent)
chain: GGGGGCCACAGCAGAAGCGUUCACGUCGCGGCCCCUGUCAGAUUCUGGUGAAUCUGCGAAUUCUGCUGU

Variants of: B1
Experiment: self-cleavage, relative activity (ratio to wild type); higher = more cleavage; co-transcriptional

Variant	self-cleavage
C57U C63U	0.34
U62C C66G	0.567
U62C C66U	0.654
A59C A60U	0.378
C57U C66U	0.42
U55G U67G	0.826
C57G C66U	0.333
C57G C66G	0.39
C63U G65U	0.772
C63U G65C	0.419
C63U G65A	0.672
G65U U69G	0.94
U61C G65A	0.36
G58A U67G	0.988
C57U U62G	0.327
A59U U67G	0.79
C57A G58C	0.397
C63A C66G	0.402
C63A C66U	0.619
C63A C66A	0.304
C66G U67C	0.914
A60U U61A	0.623
A59C U62A	0.406
C57G C63U	0.356
C57G C63G	0.285

Variant	self-cleavage
G56A C63A	0.648
C63U U67A	0.94
C57A U61A	0.428
C57A U61G	0.402
G58U U69C	1.06
G58U U69A	1.02
G68A U69C	1.05
G68A U69A	1.08
G56C C63A	0.47
G56C C63G	0.456
G56C C63U	0.709
G56U C57A	0.291
G56U C57U	0.322
G56C G65C	0.57
G56C G65A	0.459
C63U C66G	0.456
U64A	0.963
U64G	0.952
U64C	0.941
G58C U69C	1.07
U61C C63G	0.427
C57A U67C	0.25
C57A U67A	0.275
G56U G68C	0.963
G56U G68A	1.05

Variant	self-cleavage
A60G G68A	0.987
A60G G68C	0.889
G58U A59G	1.02
G56U U61G	0.548
G56U U61C	0.383
C57U G65U	0.375
U61C U67G	0.798
A60C U61C	0.355
U61A U62A	0.839
U62A U69C	1.09
C63G U67A	0.614
G58U C63A	0.951
G58C G65C	0.703
U64G G65U	0.672
A60G G65C	0.362
A59C C66U	0.727
G58C U67G	1.01
U64C G68U	0.803
A59G A60C	0.238
C63U U69C	1.06
U55G U69C	0.962
C57U U69C	0.554
U61G U64C	0.64
C57U A59C	0.376
U67G G68A	1.08

Variant	self-cleavage
U62A U64G	0.622
U61A U69C	1.06
U61A U69G	1.02
G58U G65A	0.961
G58U G65U	0.948
A59C G65A	0.496
A59C G65U	0.342
C66A G68A	0.87
C57G G68U	0.365
G58A U62G	0.884
G58A U62A	0.939
G56C U62G	0.59
U55G G56U	0.817
U55G G56C	0.729
U61C U69A	0.946
C66A U67C	0.925
C63A U64G	0.783
A60U G65C	0.362
U55G U64G	0.491
A59C U64C	0.586
A59U G68U	0.924
A59U G68A	0.957
C57G A59C	0.3
U61G U69A	0.969
U61G U69C	0.697

Variant	self-cleavage
A60U U69A	0.536
C57U U64C	0.556
C57U U64A	0.392
U62A C66U	0.737
G56A U61G	0.676
G56A U61C	0.617
U64A G65C	0.39
U64A G65U	0.827
U64G U67G	0.769
U64G U67A	0.88
U64G U67C	0.788
G58U U61A	0.929
G58C	0.985
G58A	0.965
G58U	0.994
C66U U69G	1.06
C63G G65A	0.461
C63G G65U	0.525
U62G U64C	0.502
U62G U64A	0.49
A60U U62G	0.679
A60G U61C	0.365
U62G G68C	0.866
U55G G58U	0.946
A60U U67G	0.615

Variant	self-cleavage
A59U C63A	0.377
G56U G65U	0.468
G56U G65A	0.47
A60C G65U	0.308
A60C G65A	0.438
A59G G68C	1.02
A60U G68A	0.637
A60U G68C	0.556
A60U G68U	0.66
A59C U67G	0.772
A59C G68C	0.909
U67A	0.989
U67G	1.02
U67C	0.997
A59U C66A	0.503
A59U C66G	0.592
G58C U61C	0.844
C57A A60G	0.347
G58C U64G	0.893
U64C G65U	0.699
G56A A59C	0.432
A60G U67A	0.944
A59G C63U	1.01
C57G U69G	0.473
C57G U69A	0.381

Variant	self-cleavage
U55G U62G	0.381
G58C C66U	1.02
G58U A60C	0.372
G58A C63A	0.748
G56U A59U	0.672
G56U A59C	0.514
U61G U62C	0.873
U61G U62A	0.871
U61G U62G	0.71
A60U U64A	0.394
A60U U64G	0.333
A59G U64G	0.835
G58A G68U	0.962
G58A G68C	0.978
U62G C66G	0.442
U62A U67G	0.918
U62A G68U	0.964
U64G C66A	0.422
G65C C66A	0.788
U61C U62G	0.487
U61C U62A	0.554
U55G C66G	0.451
A60C G68A	0.454
U61A U64G	0.529
U61A U64C	0.585

Variant	self-cleavage
C57A	0.346
C57G	0.354
C57U	0.375
G68U	1.01
G68A	1.01
G68C	1
G56C U64G	0.533
A60U C66G	0.405
A60U C66A	0.403
G56A U64G	0.828
G56A U64C	0.777
G65A U69C	1.05
G65A U69A	0.932
G58C A60U	0.402
C57A G68C	0.5
U64A U67C	0.83
C57U G68C	0.365
U67C G68C	1.01
U61A G68A	1.05
U62G G65U	0.455
U62G U67C	0.684
U62G U67G	0.841
A59G U69C	1.06
G56C A60C	0.295
A60G U69A	0.994

Variant	self-cleavage
A60G U69C	1.03
G58U C66G	0.974
U61A C63G	0.516
G58A U69C	1.06
U55G C63U	0.626
G56U U64A	0.612
G56U U64G	0.753
A59G U62A	0.918
C66U G68A	0.976
C66U G68U	0.969
A59U	0.854
A59G	0.997
A59C	0.788
C57A U64G	0.384
G58A G65U	0.743
G58A G65C	0.619
C57G A60C	0.258
G65A C66A	0.75
C66U U67A	1.02
A60C U64C	0.452
G56U U67C	0.894
G56U U67A	0.943
G56U U67G	0.945
U64A U69A	0.964
U64A U69C	1.05

Variant	self-cleavage
U64A U69G	0.988
G56U U69G	1.02
C63G G68C	0.706
A60G	0.954
A60C	0.359
A60U	0.526
A60C U62C	0.398
A60C U62A	0.396
U64C C66A	0.435
A59U U69G	0.903
A59U U69A	0.901
G56U A60C	0.368
U61G G65C	0.449
G56A C66A	0.702
U62A G65U	0.717
U62A G65C	0.413
C66G G68U	0.932
C66G G68C	0.735
G56A G58C	0.971
G56A G58A	0.905
A59C U61A	0.483
A59C U61G	0.359
U62C G65A	0.479
U62C G65U	0.531
C63G U69G	0.921

Variant	self-cleavage
U61A C66U	0.83
U55G U61A	0.497
G68C U69C	1.1
A60G U62A	0.576
G58C U62G	0.965
A59G G65A	0.895
C57U U61A	0.406
G58A U64G	0.955
A60G U64C	0.491
A60G U64A	0.493
A60G U64G	0.493
A59C C63G	0.316
A59C C63U	0.633
C63U U64A	0.73
C63U U64C	0.836
C66A U69C	1.04
C66A U69G	0.882
U62A C63U	0.705
C63G U64A	0.689
C63G U64C	0.407
A60C U69A	0.474
A60C U69G	0.418
U67G U69G	1.11
A60C C66A	0.288
C63U G68U	0.968

Variant	self-cleavage
C63U G68C	0.972
G56C G58C	0.907
G56C G58A	0.76
G56C G58U	0.917
A60C C63A	0.405
C63A G65C	0.491
C57A U69C	0.499
U64A G68A	0.99
G56C A59G	0.705
G56C A59C	0.403
G65C U67A	0.589
U67C U69C	1.1
C57A A59C	0.335
C57G U62G	0.448
C57G U62C	0.288
G56A U69A	1.03
G56A G68U	1.04
G56A G68C	0.992
C57A U62A	0.32
U61C G68U	0.893
A59G U61A	0.916
A59G U61G	0.941
A59G C66U	0.979
U64C U67G	0.824
U55G G68U	0.874

Variant	self-cleavage
U61G C66U	0.659
G65C G68U	0.406
G65C G68C	0.633
G65U G68A	0.919
G65U G68U	0.681
G65C U69G	0.862
G65C U69C	1.05
G56C G68C	0.907
U62C C63A	0.753
C57A G65C	0.4
C57A G65U	0.399
G56U C66G	0.552
G56U C66U	0.872
U64C U69G	1
U64C U69A	0.972
U61G U67G	0.808
